According to article PMC3870021:

What was measured:
[1] = biological target: recombinant human EPCR (extracellular domain Met1-Thr209, C-terminal poly-histidine tag) (human) (UniProt Q9UNN8); assay: SPR
EPCR (Homo sapiens) = EPCR (Homo sapiens) (UniProt Q9UNN8); settings: cited from earlier work
Chain of EPCR (Homo sapiens) (Q9UNN8 18-210): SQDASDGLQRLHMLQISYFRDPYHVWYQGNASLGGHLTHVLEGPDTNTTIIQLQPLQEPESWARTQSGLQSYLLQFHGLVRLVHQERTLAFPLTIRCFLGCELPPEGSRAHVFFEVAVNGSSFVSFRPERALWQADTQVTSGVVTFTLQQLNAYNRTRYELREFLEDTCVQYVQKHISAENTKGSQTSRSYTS

Chain of recombinant human EPCR (extracellular domain Met1-Thr209, C-terminal poly-histidine tag) (human) (Q9UNN8 18-209): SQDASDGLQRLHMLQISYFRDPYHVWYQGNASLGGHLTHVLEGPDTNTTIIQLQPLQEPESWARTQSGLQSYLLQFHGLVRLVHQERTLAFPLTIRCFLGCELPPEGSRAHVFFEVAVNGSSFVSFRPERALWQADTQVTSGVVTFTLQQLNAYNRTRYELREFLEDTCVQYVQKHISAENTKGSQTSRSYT

Row | Substance | Kd [1] [nM] | Kd (EPCR (Homo sapiens)) [nM]
1 | recombinant full-length DC8-containing PfEMP1 IT4VAR20 (natural protein) | 10 | 
2 | activated protein C (commercial human purified APC) (from UniProt P04070 43-197) (enzyme) | 1000 | 
3 | Activated protein C (from UniProt P04070) |  | 32
